In patent US10066025B2, “Compositions and methods for detecting, treating and preventing diseases and disorders” (YALE UNIVERSITY, priority 2012, dated 2018):

Columns and labels:
[1] = system: renal ischemia/reperfusion (IR) injury; assay: Murine model of renal ischemia/reperfusion (IR) injury, plasma creatinine; format: in vivo, mice
Procedure: (§1) Adult male renalase deficient (KO) mice (Wu et al., 2011, Kidney Int 79: 853-860) on a C57BL/6 background were subjected to renal ischemia/reperfusion (IR) as described (Kim et al., 2009, Kidney Int 75: 809-823; Kim et al., 2010, Am J Physiol Renal Physiol 299(2):F347-58). Renalase KO or wild type (WT) mice (C57BL/6 from Harlan Labs, Indianapolis, Ind.) were subjected to sham-operation or to 20 min. (moderate) or 30 min. (severe) renal ischemia and 24 hr. reperfusion. To test the renal protective effects of recombinant human renalase, mice were pretreated with saline (vehicle) or with recombinant renalase (0.5, 1.5 or 4.5 mg/kg, s.c.) 10 min. prior to 30 min. renal ischemia. It was also tested whether renalase treatment after completion of renal ischemia also provides renal protection. Separate cohorts of mice were treated with saline or with renalase (1.5 mg/kg, s.c.) 30 min. or 60 min. after reperfusion of the ischemic kidney. To test whether blocking alpha receptors would mimic the renal protective effects of human recombinant renalase administration, phentolamine (an alpha receptor antagonist, 5 mg/kg, i.p.) was given in some mice 15 min. before renal ischemia.
Plasma creatinine was measured as described with an enzymatic creatinine reagent kit according to the manufacturer's instructions (Thermo Fisher Scientific, Waltham, Mass.) (Slot, 1965, J Clin Lab Invest 17: 381-387).
After animal care and use committee approval, adult male C57BL/6 (Harlan Labs, Indianapolis, Ind.) were subjected to sham-operation or to 30 minutes of renal ischemia followed by 24 hrs of reperfusion as previously described (Lee et al., 2004, American journal of physiology. Renal physiology 286:F298-306). To test the renal protective effects of renalase peptides (RP-220, RP-H220 and RP-224), mice were pretreated with saline (vehicle) or with renalase peptides (100 μg subcutaneous) 10 to 30 minutes prior to renal ischemia.
Blood was collected from mice anesthetized with isoflurane via cardiac puncture into a heparinized syringe and was subsequently centrifuged to separate plasma. Samples were submitted to the Yale O'Brien Kidney Center for measurement of BUN and creatinine. Plasma creatinine was measured either by an enzymatic creatinine reagent kit according to the manufacturer's instructions (Thermo Fisher Scientific, Waltham, Mass.) or by HPLC. These methods of creatinine measurement largely eliminate the interferences from mouse plasma chromagens, known to occur with the Jaffe method.

systemic blood pressure = conditions: Xu et al., 2005, cited from earlier work
plasma norepinephrine = assay: Plasma norepinephrine after renal IR (ELISA); format: in vivo; conditions: 1.5 mg/kg; mice subjected to renal IR; vehicle 2.4±0.13 ng/mL
Procedure: as §1
Plasma norepinephrine in mice subjected to sham-operation or to renal IR was measured with a commercial ELISA kit according to the manufacturer's instructions (Rocky Mountain Diagnostics, Colorado Springs, Colo.).

[2] = cited from earlier work
[3] = system: PI3K/AKT and MAPK pathways; assay: AKT and MAPK signaling and Bcl-2 expression by western blot; format: cell-based, human
Procedure: FIG. 12, comprising FIGS. 12A through 12E, is a set of images and graphs showing renalase upregulates Bcl-2, activates PI3K/AKT, ERK, p38, and inhibits JNK. Western blot analysis; P− indicates phosphorylated, activated proteins; signals normalized to GAPDH loading control, then changes in protein phosphorylation (increase=activation, decrease=inhibition) from time 0 are calculated. FIG. 12A: HK-2 and HUVEC cells incubated with renalase for 24 hrs; FIG. 12B: Western blot of time course of AKT and MAPK signaling by renalase, HK-2 cells incubated with renalase for indicated time; changes over baseline in 4c-d are significant (p<0.05); FIG. 12C: Activation of AKT(T308), AKT(5473) and ERK; FIG. 12D: Inhibition of JNK; FIG. 12E: Marked and sustained (60 min) upregulation of p38 by renalase in the presence of cisplatin, western blot for time course, REN=renalase, CP=cisplatin.
MAPK signaling by renalase and renalase peptides. Western blot analysis; ERK: Extracellular signal-Regulated Kinase 1 and 2; JNK: c-Jun N-terminal Kinases; AKT: protein kinase B; p-indicates phosphorylated, activated proteins; representative blot, n=3 (FIG. 20A). Renalase activates AKT (FIG. 20B). Western blot analysis; P− indicates phosphorylated, activated proteins Representative blot, n=3 (FIG. 20B, left panel). Signals normalized to GAPDH loading control; n=3, change over baseline statistically significant (P<0.05) from 1-60 min for ERK, p38 and AKT (T308), and at 30 min only for AKT (S473) (FIG. 20B, right panel). ERK or AKT inhibition abrogates protective effect of RP-H220 (FIG. 20C). Plasma creatinine levels from mice subjected to sham-surgery or to renal ischemia and reperfusion (IR); Renalase WT mice were subjected to sham-surgery or to 30 min renal IR. For mice subjected to renal IR, RP-H220 or vehicle (saline) was injected 10 min prior to renal ischemia. Some animals were pretreated with either the ERK inhibitor PD98059 or the PI3K/AKT inhibitor wortmanin. (N=6-8 per group). *: P<0.05 vs. vehicle-treated mice subjected to sham-surgery; #: P<0.05 vs. vehicle-treated WT mice subjected to renal IR (FIG. 20C).

HK-2 cells [4] = assay: HK-2 cell cisplatin toxicity (WST-1 viability, western blot); format: cell-based, human; conditions: 20 μM cisplatin, 24 hrs
Procedure: Cultured HK-2 cells were incubated with 20 μM cisplatin for 24 hours with and without recombinant renalase. Renalase expression was examined by Western blot and cell viability (mitochondrial integrity) was determined spectrophotometrically using WST-1, a tetrazolium salt that is cleaved, by mitochondrial dehydrogenases of metabolically active and viable cells, to formazan (420-480 nm) (Boehringer Mannheim, Germany).
(§2) HK2 cells (human proximal tubular line) obtained from ATTC (Manassas, Va., USA) were cultured in DMEM/F12 supplemented with glutamine, 10% FBS and antibiotics, and were maintained at 37° C. in 5% CO2. Cells were exposed to cisplatin (20 μM) in the presence or absence of renalase for 24 hrs, and cell viability was assessed by the WST1 method (Roche Applied Science, Germany). Cells were then harvested in RIPA buffer (20 mM Tris-HCl pH 7.5, 150 mM NaCl, 1 mM Na2EDTA, 1 mM EGTA, 1% NP-40, 1% sodium deoxycholate, 2.5 mM sodium pyrophosphate, 1 mM β-glycerophosphate, 1 mM Na3VO4, 1 μg/ml leupeptin) supplemented with a protease and phosphatase inhibitor cocktail (Roche Applied Science, Germany). Proteins were separated by SDS-PAGE and Western blotting was carried out using the following antibodies: anti-renalase monoclonal (Desir et al., 2012, J Am Heart Assoc. 1:e002634; (Lee et al., 2013, J Am Soc Nephrol 24:445-455); anti caspase 3 (Cell Signaling Technology, MA, USA) and anti Bcl2 (Thermo Scientific, USA). Necrotic injury in HK-2 cells (ATCC, Manassas, Va.) was induced with exposure to 2 mM H2O2 for 2-8 hr and lactate dehydrogenase (LDH) released into cell culture media was measured as described using a commercial LDH assay kit (Promega, Madison, Wis.) (Lee and Emala, 2002, American journal of physiology. Renal physiology 282:F844-852).

HK-2 cells [5] = assay: HK-2 cell necrosis induced with 2 mM H2O2 (LDH release); format: cell-based, human
Procedure: as §2

[6] = system: renal ischemia/reperfusion (IR) injury; assay: Histological detection of necrosis, apoptosis, neutrophil and macrophage infiltration after renal IR; format: in vivo, mice
Procedure: Adult male renalase deficient (KO) mice (Wu et al., 2011, Kidney Int 79: 853-860) on a C57BL/6 background were subjected to renal ischemia/reperfusion (IR) as described (Kim et al., 2009, Kidney Int 75: 809-823; Kim et al., 2010, Am J Physiol Renal Physiol 299(2):[…]-58). Renalase KO or wild type (WT) mice (C57BL/6 from Harlan Labs, Indianapolis, Ind.) were subjected to sham-operation or to 20 min. (moderate) or 30 min. (severe) renal ischemia and 24 hr. reperfusion. To test the renal protective effects of recombinant human renalase, mice were pretreated with saline (vehicle) or with recombinant renalase (0.5, 1.5 or 4.5 mg/kg, s.c.) 10 min. prior to 30 min. renal ischemia. It was also tested whether renalase treatment after completion of renal ischemia also provides renal protection. Separate cohorts of mice were treated with saline or with renalase (1.5 mg/kg, s.c.) 30 min. or 60 min. after reperfusion of the ischemic kidney. To test whether blocking alpha receptors would mimic the renal protective effects of human recombinant renalase administration, phentolamine (an alpha receptor antagonist, 5 mg/kg, i.p.) was given in some mice 15 min. before renal ischemia. An established grading scale of necrotic injury (0-4, Renal Injury Score) to the proximal tubules was used for the histopathological assessment of IR-induced damage as outlined by Jablonski et al. (1983, Transplantation 35: 198-204) and as described in previous studies (Lee et al., 2004, J Am Soc Nephrol 15: 102-111; Lee et al., 2004, Am J Physiol Renal Physiol 286: […]-[…]). Apoptosis was detected after renal IR with TUNEL staining as described (Park et al., 2011, Lab Invest 91: 63-84) using a commercially available in situ cell death detection kit (Roche, Indianapolis, Ind.) according to the instructions provided by the manufacturer. Kidney neutrophil and macrophage infiltrations were assessed with immunohistochemistry 24 hr. after IR as described previously (Park et al., 2011, Lab Invest 91: 63-84). Neutrophils and macrophages infiltrating the kidney were quantified in 5-7 randomly chosen 200× (neutrophils) or 400× (macrophages) microscope images fields in the corticomedullary junction and results were expressed as neutrophils counted per 200-400× field.

[7] = treated before renal ischemia, 30 min. ischemia, 24 hr. reperfusion

B1: recombinant renalase: human recombinant renalase, 38 kDa FAD-dependent amine oxidase; renalase polypeptide SEQ ID NO: 9 or 10 (protein, UniProt Q5VYX0 18-342, looked up)
Renalase: ALLRRQTSGPLYLAVWDKAEDSGGRMTTACSPHNPQCTADLGAQYITCTPHYAKKHQRFYDELLAYGVLRPLSSPIEGMVMKEGDCNFVAPQGISSIIKHYLKESGAEVYFRHRVTQINLRDDKWEVSKQTGSPEQFDLIVLTMPVPEILQLQGDITTLISECQRQQLEAVSYSSRYALGLFYEAGTKIDVPWAGQYITSNPCIRFVSIDNKKRNIESSEIGPSLVIHTTVPFGVTYLEHSIEDVQELVFQQLENILPGLPQPIATKCQKWRHSQVTNAAANCPGQMTLHHKPFLACGGDGFTQSNFDGCITSALCVLEALKNYI
protection against renal IR injury, post-ischemic treatment ([1]; 1.5 mg/kg given 30 min. after reperfusion): protective against renal IR injury
renal protection at higher dose compared with 1.5 mg/kg ([1]; 4.5 mg/kg s.c. 10 min. before renal ischemia): provided reduced renal protection
increases in plasma creatinine after renal IR ([1]; 0.5, 1.5 or 4.5 mg/kg s.c. 10 min. before 30 min. renal ischemia, 24 hr. reperfusion): significantly attenuated the increases in plasma creatinine
protection against renal IR injury, post-ischemic treatment ([1]; given 60 min. after reperfusion): did not provide renal protection
plasma creatinine ([1]; recombinant renalase 1.5 mg/kg, 30 min. warm ischemia, decreased from ~2.4 mg/dL): 1.4 mg/dL
reduction of mean arterial pressure (systemic blood pressure; 4 mg/kg dose): ~40%
blood pressure when injected into rodents (systemic blood pressure): marked decrease in blood pressure
plasma norepinephrine (plasma norepinephrine): 1.6 ± 0.2 ng/mL
increase in rate of epinephrine metabolism in the presence of NADH [2]: 18 fold
Bcl-2 expression ([3]; HK-2 and human vein endothelial cells (HUVEC) at 24 hrs): upregulates Bcl-2 expression
decrease in JNK-p54/p46 phosphorylation ([3]; HK-2 cells): ~95%
AKT and MAPK signaling (phosphorylation of ERK, p38, AKT) ([3]; HK-2 cells in culture): rapid and transient increase in phosphorylated
activation of AKT ([3]; at 15 min, HK-2 cells): ~45 fold
activation of ERK ([3]; at 15 min, HK-2 cells): ~35 fold
activation of AKT and p38 ([3]; cells treated with cisplatin): marked and sustained activation
cell survival / protection against cisplatin toxicity (HK-2 cells [4]): improved HK-2 cell survival
cell survival / protection against cisplatin toxicity (HK-2 cells [4]; listed as exogenous renalase): reversed
Bcl-2 expression (HK-2 cells [4]; western blot): increased Bcl-2 expression
caspase-3 activation (HK-2 cells [4]; western blot): decreased caspase-3 activation
cellular renalase expression (HK-2 cells [4]; western blot): restored cellular renalase expression
caspase-3 activation (HK-2 cells [4]; western blot, listed as Renalase): inhibited caspase-3 activation
LDH released at 6 hr (HK-2 cells [5]; 10 μg/ml, 2 mM H2O2, vehicle LDH=47+3%): 28±2%
necrosis induced with 2 mM H2O2 (HK-2 cells [5]; vs. vehicle-treated HK-2 cells): significantly reduced necrosis
apoptotic TUNEL-positive cells in the kidney ([6]; 1.5 mg/kg s.c. 10 min. before renal ischemia): significantly reduced the number of apoptotic TUNEL-positive cells
renal histological injury (hematoxylin and eosin) ([6]; 1.5 mg/kg, renalase WT mice vs. vehicle): dramatically reduced injury
Jablonski scale renal injury score (0-4) ([6]; renalase WT mice, 30 min. renal IR, 24 hr. after IR, vs. vehicle): significantly lower renal injury scores
macrophages infiltrating the kidney after IR (F4/80) [6, 7]: significantly reduced number of macrophages
neutrophils infiltrating the kidney after IR [6, 7]: significantly reduced number of neutrophils
